Patent US20220387586A1 (Hoffmann-La Roche, published 2022)
Where two headings read alike, the source gives them in different places.

T1: recombinant Human LAG-3 Fc Chimera Protein (R&D Systems, 2319-L3) (human, UniProt P18627 29-450)
T1 construct: Bought protein; also called huLAG3; not shown: Fc part of the chimera
T1 sequence: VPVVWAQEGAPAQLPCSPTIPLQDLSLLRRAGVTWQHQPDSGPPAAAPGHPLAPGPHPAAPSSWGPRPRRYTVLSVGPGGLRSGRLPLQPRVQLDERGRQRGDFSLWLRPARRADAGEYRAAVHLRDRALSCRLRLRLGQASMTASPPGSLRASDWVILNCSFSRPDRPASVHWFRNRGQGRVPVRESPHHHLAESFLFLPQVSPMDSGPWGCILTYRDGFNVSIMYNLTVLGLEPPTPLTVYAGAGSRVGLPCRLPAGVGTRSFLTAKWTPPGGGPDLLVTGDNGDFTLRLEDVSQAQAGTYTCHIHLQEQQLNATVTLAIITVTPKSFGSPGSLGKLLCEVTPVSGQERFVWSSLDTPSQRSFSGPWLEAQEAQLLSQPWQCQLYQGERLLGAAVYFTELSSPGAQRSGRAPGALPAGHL

T2: LAG3 on cells (recombinant CHO cells expressing Lag3) (human, UniProt P18627 29-525)
T2 construct: The cell ELISA paragraphs say only 'Lag3'; also called CHO-LAG3; Lag3 cells
T2 sequence: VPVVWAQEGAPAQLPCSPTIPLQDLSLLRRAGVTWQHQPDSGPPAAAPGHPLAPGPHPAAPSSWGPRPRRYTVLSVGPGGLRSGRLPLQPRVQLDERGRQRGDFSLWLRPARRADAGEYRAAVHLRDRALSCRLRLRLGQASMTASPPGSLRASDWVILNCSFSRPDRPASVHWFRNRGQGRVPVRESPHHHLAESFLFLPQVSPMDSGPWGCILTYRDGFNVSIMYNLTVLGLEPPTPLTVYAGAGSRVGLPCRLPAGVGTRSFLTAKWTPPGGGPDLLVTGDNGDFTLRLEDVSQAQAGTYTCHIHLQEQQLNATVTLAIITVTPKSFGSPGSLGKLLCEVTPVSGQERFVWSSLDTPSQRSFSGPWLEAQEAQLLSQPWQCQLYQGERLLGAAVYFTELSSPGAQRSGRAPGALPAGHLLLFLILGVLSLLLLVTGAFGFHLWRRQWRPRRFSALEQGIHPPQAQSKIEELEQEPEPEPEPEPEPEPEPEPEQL

T3: biotinylated-Lag3 (UniProt P18627 23-450, limits assumed, biotinylated)
T3 construct: Probably a human LAG3 ECD construct; also called Lag3 (MHCII/ELISA)
T3 sequence (looked up): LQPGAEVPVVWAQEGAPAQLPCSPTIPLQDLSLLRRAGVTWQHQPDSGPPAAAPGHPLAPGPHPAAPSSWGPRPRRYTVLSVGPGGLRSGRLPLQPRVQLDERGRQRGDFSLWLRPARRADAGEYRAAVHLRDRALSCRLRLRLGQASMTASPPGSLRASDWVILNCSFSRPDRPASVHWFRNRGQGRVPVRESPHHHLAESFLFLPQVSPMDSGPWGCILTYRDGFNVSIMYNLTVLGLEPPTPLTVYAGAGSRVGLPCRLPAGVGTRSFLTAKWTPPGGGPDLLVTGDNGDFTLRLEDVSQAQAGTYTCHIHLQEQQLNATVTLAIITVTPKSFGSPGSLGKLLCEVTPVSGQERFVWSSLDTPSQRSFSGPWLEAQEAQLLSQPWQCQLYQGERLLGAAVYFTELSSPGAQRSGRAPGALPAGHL


Key:
[1] = molecular target: T4, PD1 on PD1+LAG3+ human U2OS cells (UniProt Q15116 25-288); test: cell-based or functional assay
T4 sequence (Q15116 25-288): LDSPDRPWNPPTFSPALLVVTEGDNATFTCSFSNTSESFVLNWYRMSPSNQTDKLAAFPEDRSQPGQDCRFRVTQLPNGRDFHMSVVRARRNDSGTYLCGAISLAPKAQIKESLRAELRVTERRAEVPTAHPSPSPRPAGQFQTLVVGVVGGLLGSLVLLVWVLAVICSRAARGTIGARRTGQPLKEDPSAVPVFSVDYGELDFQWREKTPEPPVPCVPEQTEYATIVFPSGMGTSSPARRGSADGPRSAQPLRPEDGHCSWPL

[2] = molecular target: T4, PD1 on PD1+LAG3+ human U2OS cells; test: cell-based or functional assay; remark: listed apart in the source
[3] = molecular target: T1, recombinant Human LAG-3 Fc Chimera …; test: ELISA on coated Human LAG-3 Fc Chimera (rel. EC50)
Procedure: After washing (3×90 μl/well with PBST-buffer) each well was incubated with 90 μl blocking buffer (PBS+2% BSA+0.05% Tween 20) for 1 h at room temperature. […] After washing (3×90 μl/well with PBST-buffer) 25 μl/well goat anti-Human Ig κ chain antibody-HRP conjugate (Milipore, AP502P) was added in a 1:2000 dilution and incubated at RT for 1 h. After washing (3×90 μl/well with PBST-buffer) 25 μl/well TMB substrate (Roche, 11835033001) was added and incubated for 2-10 min. Measurement took place on a Tecan Safire 2 instrument at 370/492 nm.

[4] = molecular target: T5, biotinylated PD1-ECD-AviHis (human, UniProt Q15116 25-170, biotinylated); test: ELISA on coated biotinylated PD1-ECD-AviHis (rel. EC50)
T5 construct: also called huPD1; hu PD1; not shown: Avi-His tag
T5 sequence (Q15116 25-170): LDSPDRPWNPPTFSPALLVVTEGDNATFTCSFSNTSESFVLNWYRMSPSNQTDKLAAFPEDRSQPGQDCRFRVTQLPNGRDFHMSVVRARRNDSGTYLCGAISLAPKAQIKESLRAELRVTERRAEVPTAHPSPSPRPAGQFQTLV
Procedure: After washing (3×90 μl/well with PBST-buffer) 25 μl/well goat-anti-human H+L-POD (JIR, JIR109-036-098) was added in 1:5000 dilution and incubated at RT for 1 h on a shaker. After washing (3×90 μl/well with PBST-buffer) 25 μl/well of TMB substrate (Roche, 11835033001) was added and incubated until OD 2-3. Measurement took place at 370/492 nm.

[5] = molecular target: T2, LAG3 on cells (recombinant CHO cells …); test: cell ELISA on recombinant CHO cells expressing Lag3 (rel. EC50)
Procedure: After washing (1×90 μl in PBST) cells were fixed by addition of 30 μl/well glutaraldehyde to a final concentration of 0.05% (Sigma Cat.No: G5882), 10 min at room temperature. After washing (3×90 μl/well with PBST-buffer) 25 μl/well goat anti-Human Ig κ chain antibody-HRP conjugate (Milipore, AP502P) was added in a 1:1000 dilution and incubated at RT for 1 h. After washing (3×90 μl/well with PBST-buffer) 25 μl/well TMB substrate (Roche, 11835033001) was added and incubated for 6-10 min. Measurement took place on a Tecan Safire 2 instrument at 370/492 nm.

[6] = molecular target: T6, full-length human PD1 on cells (human, UniProt Q15116 25-288); test: cell ELISA on CHO-K1 cells expressing full-length human PD1 (rel. EC50)
T6 construct: also called CHO-PD1
T6 sequence (Q15116 25-288 limits assumed): as the sequence (Q15116 25-288) above
Procedure: (to avoid internalization). After washing carefully (1×90 μl/well PBST) cells were fixed by adding 30 μl/well 0.05% Glutaraldehyde (Sigma, Cat.No: G5882, 25%) diluted in 1×PBS-buffer and incubated for 10 min at RT. After washing (3×90 μl/well PBST) 25 μl/well secondary antibody was added for detection: goat-anti-human H+L-POD (JIR, JIR109-036-088)/Sheep-anti-mouse-POD (GE NA9310) followed by 1 h incubation at RT on shaker. After washing (3×90 μl/well PBST) 25 μl/well TMB substrate solution (Roche 11835033001) was added and incubated until OD 1.0-2.0. Plates were measured at 370/492 nm.

biotinylated-Lag3 = molecular target: T3, biotinylated-Lag3; test: ELISA, inhibition of biotinylated-Lag3 binding to MHC-II on A375 cells (competitor MHC-II)
Procedure: 25 μl/well of A375 cells (10000 cells/well) were seeded into tissue culture treated 384-well plates (Corning, 3701) and incubated at 37° C. overnight. […] After washing (1×90 μl in PBST) cells were fixed by addition of 30 μl/well glutaraldehyde to a final concentration of 0.05% (Sigma Cat.No: G5882), 10 min at room temperature. After washing (3×90 μl/well with PBST-buffer) 25 μl/well Poly-HRP40-Streptavidin (Fitzgerald, 65R-S104PHRPx) was added in a 1:2000 or 1:8000 dilution and incubated at RT for 1 h. After washing (3×90 μl/well with PBST-buffer) 25 μl/well TMB substrate (Roche, 11835033001) was added and incubated for 2 to 10 min. Measurement took place on a Tecan Safire 2 instrument at 370/492 nm.

Binder | EC50 [pM], dimerization binding assay (chemoluminescence) [1] [pM] | EC50 [pM], dimerization binding assay (chemoluminescence) [2] [pM] | EC50 [3] [nM] | EC50 [4] [nM] | EC50 [5] [nM] | EC50 [6] [nM] | IC50 (biotinylated-Lag3) [nM]
PD1/LAG3 8310 (bispecific antibody, human IgG1, kappa, L234A L235A, 2+1 format: two LAG3 Fabs, one PD1 crossFab fused to the C-terminus of the Fc knob heavy chain) heavy 1: not shown heavy 2: EVQLLESGGGLVQPGGSLRLSCAASGFIFDDYTMNWVRQAPGKGLEWVAVISWDGGGTYYTDSVKGRFTISRDDFKNTLYLQMNSLRAEDTAVYYCAKGLTDTTLYGSDYWGQGTLVTVSSASTKGPSVFPLAPSSKSTSGGTAALGCLVEDYFPEPVTVSWNSGALTSGVHTFPAVLQSSGLYSLSSVVTVPSSSLGTQTYICNVNHKPSNTKVDEKVEPKSCDKTHTCPPCPAPEAAGGPSVFLFPPKPKDTLMISRTPEVTCVVVDVSHEDPEVKFNWYVDGVEVHNAKTKPREEQYNSTYRVVSVLTVLHQDWLNGKEYKCKVSNKALGAPIEKTISKAKGQPREPQVCTLPPSRDELTKNQVSLSCAVKGFYPSDIAVEWESNGQPENNYKTTPPVLDSDGSFFLVSKLTVDKSRWQQGNVFSCSVMHEALHNHYTQKSLSLSPGK light 1: DIVMTQSPDSLAVSLGERATINCKASESVDTSDNSFIHWYQQKPGQSPKLLIYRSSTLESGVPDRFSGSGSGTDFTLTISSLQAEDVAVYYCQQNYDVPWTFGQGTKVEIKSSASTKGPSVFPLAPSSKSTSGGTAALGCLVKDYFPEPVTVSWNSGALTSGVHTFPAVLQSSGLYSLSSVVTVPSSSLGTQTYICNVNHKPSNTKVDKKVEPKSC light 2: not shown | 28 | 114 | 0.06 | 0.06 | 0.2 | 0.34 | 0.47
PD1/LAG3 8984 (bispecific antibody, human IgG1, kappa, L234A L235A, 2+2 format) heavy: not shown light 1: DIVMTQSPDSLAVSLGERATINCKASESVDTSDNSFIHWYQQKPGQSPKLLIYRSSTLESGVPDRFSGSGSGTDFTLTISSLQAEDVAVYYCQQNYDVPWTFGQGTKVEIKSSASTKGPSVFPLAPSSKSTSGGTAALGCLVKDYFPEPVTVSWNSGALTSGVHTFPAVLQSSGLYSLSSVVTVPSSSLGTQTYICNVNHKPSNTKVDKKVEPKSC light 2: not shown | – | 91 | 0.05 | 0.05 | 0.17 | 0.54 | 0.44
PD1/LAG3 8311 (bispecific antibody, human IgG1, kappa, L234A L235A, 2+1 format: two LAG3 Fabs, one PD1 crossFab fused to the C-terminus of the Fc knob heavy chain) heavy 1: not shown heavy 2: EVQLVESGGGLVQPGGSLRLACAASGFTFSDYAMSWVRQAPGKGLEWVSGIDNSGYYTYYTDSVKGRFTISRDDVKNTLYLQMNSLRAEDTAVYLCTKTHSGLIVNDAFDIWGQGTMVTVSSASTKGPSVFPLAPSSKSTSGGTAALGCLVEDYFPEPVTVSWNSGALTSGVHTFPAVLQSSGLYSLSSVVTVPSSSLGTQTYICNVNHKPSNTKVDEKVEPKSCDKTHTCPPCPAPEAAGGPSVFLFPPKPKDTLMISRTPEVTCVVVDVSHEDPEVKFNWYVDGVEVHNAKTKPREEQYNSTYRVVSVLTVLHQDWLNGKEYKCKVSNKALGAPIEKTISKAKGQPREPQVCTLPPSRDELTKNQVSLSCAVKGFYPSDIAVEWESNGQPENNYKTTPPVLDSDGSFFLVSKLTVDKSRWQQGNVFSCSVMHEALHNHYTQKSLSLSPGK light 1: DIVMTQSPDSLAVSLGERATINCKASESVDTSDNSFIHWYQQKPGQSPKLLIYRSSTLESGVPDRFSGSGSGTDFTLTISSLQAEDVAVYYCQQNYDVPWTFGQGTKVEIKSSASTKGPSVFPLAPSSKSTSGGTAALGCLVKDYFPEPVTVSWNSGALTSGVHTFPAVLQSSGLYSLSSVVTVPSSSLGTQTYICNVNHKPSNTKVDKKVEPKSC light 2: not shown | 119 | 124 | 0.06 | 0.05 | 0.17 | 0.32 | 0.39
PD1/LAG3 8970 (bispecific antibody, human IgG1, kappa, L234A L235A, 2+2 format) heavy: not shown light 1: DIVMTQSPDSLAVSLGERATINCKASESVDTSDNSFIHWYQQKPGQSPKLLIYRSSTLESGVPDRFSGSGSGTDFTLTISSLQAEDVAVYYCQQNYDVPWTFGQGTKVEIKSSASTKGPSVFPLAPSSKSTSGGTAALGCLVKDYFPEPVTVSWNSGALTSGVHTFPAVLQSSGLYSLSSVVTVPSSSLGTQTYICNVNHKPSNTKVDKKVEPKSC light 2: not shown | – | 83 | 0.04 | 0.05 | 0.2 | 0.46 | 0.45
